Molecular target: cyXR, xanthorhodopsin from an Antarctic filamentous cyanobacterium (genus Pseudanabaena) (Pseudanabaena (Antarctic MAG, Dry Valleys))
Assay: cryo-EM structure

## cyXR, xanthorhodopsin from an Antarctic filamentous cyanobacterium (genus Pseudanabaena) (natural protein)
  stoichiometry N: 5

— doi:10.1101/2025.06.10.658827
